Experimental data from paper PMC5547543 (2017).
Like-named read-outs stand apart in the source and are kept apart here.

What was measured:
Assay in all cases: SPR
Hck (2PA-YEEI) [1] = target: T1, Hck (2PA-YEEI) (UniProt P08631 1-526, C-terminal tail tyrosine of the YEEI motif constitutively phosphorylated; autophosphorylated at the activation loop tyrosine (Tyr-411 of Hck))
Hck (2PA-YEEI) [2] = target: T1, Hck (2PA-YEEI); remark: listed apart in the source
Hck (2PA-YEEI) [3] = target: T1, Hck (2PA-YEEI); remark: listed apart in the source

T1 sequence (P08631 other isoform, or with tags, fused parts or gaps): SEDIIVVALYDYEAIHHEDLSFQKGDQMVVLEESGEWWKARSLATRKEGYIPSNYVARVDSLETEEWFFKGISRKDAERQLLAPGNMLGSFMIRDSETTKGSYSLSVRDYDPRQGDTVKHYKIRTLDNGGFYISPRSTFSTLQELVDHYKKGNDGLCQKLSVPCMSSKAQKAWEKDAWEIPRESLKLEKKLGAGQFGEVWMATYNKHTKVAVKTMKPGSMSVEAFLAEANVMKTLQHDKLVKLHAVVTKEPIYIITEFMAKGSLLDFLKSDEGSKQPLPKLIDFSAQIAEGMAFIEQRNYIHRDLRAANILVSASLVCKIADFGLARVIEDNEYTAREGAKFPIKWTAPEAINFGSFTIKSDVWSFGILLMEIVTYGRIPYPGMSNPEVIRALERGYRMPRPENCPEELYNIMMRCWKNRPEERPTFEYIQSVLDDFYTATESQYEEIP

Binder | Kd (Hck (2PA-YEEI) [1]) [nM] | koff (Hck (2PA-YEEI) [2]) [s⁻¹] | Kd (Hck (2PA-YEEI) [3]) [nM]
Chk (R278A) (enzyme) MPTRRWAPGTQCITKCEHTRPKPGELAFRKGDVVTILEACENKSWYRVKHHTSGQEGLLAAGALREREALSADPKLSLMPWFHGKISGQEAVQQLQPPEDGLFLVRESARHPGDYVLCVSFGRDVIHYRVLHRDGHLTIDEAVFFCNLMDMVEHYSKDKGAICTKLVRPKRKHGTKSAEEELARAGWLLNLQHLTLGAQIGEGEFGAVLQGEYLGQKVAVKNIKCDVTAQAFLDETAVMTKMQHENLVRLLGVILHQGLYIVMEHVSKGNLVNFLRTAGRALVNTAQLLQFSLHVAEGMEYLESKKLVHRDLAARNILVSEDLVAKVSDFGLAKAERKGLDSSRLPVKWTAPEALKHGKFTSKSDVWSFGVLLWEVFSYGRAPYPKMSLKEVSEAVEKGYRMEPPEGCPGPVHVLMSSCWEAEPARRPPFRKLAEKLARELRSAGAPASVSGQDADGSTSPRSQEP | 13 | 0.000195 | –
Chk (R276A) (enzyme) MPTRRWAPGTQCITKCEHTRPKPGELAFRKGDVVTILEACENKSWYRVKHHTSGQEGLLAAGALREREALSADPKLSLMPWFHGKISGQEAVQQLQPPEDGLFLVRESARHPGDYVLCVSFGRDVIHYRVLHRDGHLTIDEAVFFCNLMDMVEHYSKDKGAICTKLVRPKRKHGTKSAEEELARAGWLLNLQHLTLGAQIGEGEFGAVLQGEYLGQKVAVKNIKCDVTAQAFLDETAVMTKMQHENLVRLLGVILHQGLYIVMEHVSKGNLVNFLATRGRALVNTAQLLQFSLHVAEGMEYLESKKLVHRDLAARNILVSEDLVAKVSDFGLAKAERKGLDSSRLPVKWTAPEALKHGKFTSKSDVWSFGVLLWEVFSYGRAPYPKMSLKEVSEAVEKGYRMEPPEGCPGPVHVLMSSCWEAEPARRPPFRKLAEKLARELRSAGAPASVSGQDADGSTSPRSQEP | 56 | 0.000208 | –
Chk (K387A) (enzyme) MPTQRWAPGTQCMTKCENSRPKPGELAFRKGDMVTILEACEDKSWYRAKHHSSGQEGLLAAAALRQREALSTDPKLSLMPWFHGKISGQEAIQQLQPPEDGLFLVRESARHPGDYVLCVSFGRDVIHYRVLHRDGHLTIDEAVCFCNLMDMVEHYTRDKGAICTKLVKPKRKQGAKSAEEELAKAGWLLDLQHLTLGAQIGEGEFGAVLQGEYLGQKVAVKNIKCDVTAQAFLDETAVMTKLQHRNLVRLLGVILHHGLYIVMEHVSKGNLVNFLRTRGRALVSTSQLLQFALHVAEGMEYLESKKLVHRDLAARNILVSEDLVAKVSDFGLAKAELRKGLDSSRLPVKWTAPEALKNGRFSSKSDVWSFGVLLWEVFSYGRAPYPAMSLKEVSEAVEKGYRMEPPDSCPGPVHTLMGSCWEAEPSRRPPFRKIVEKLGRELRSVGVAAPAGGQEAEGSAPTRSQDPGSGSHHHHHH | – | 0.00036 | –

Other lines, results leading:

Kd (Hck (2PA-YEEI) [1]) [nM] | koff (Hck (2PA-YEEI) [2]) [s⁻¹] | Kd (Hck (2PA-YEEI) [3]) [nM] | Binder
– | – | 1270 | Csk-Chk chimera (enzyme) MSAIQAAWPSGTECIAKYNFHGTAEQDLPFCKGDVLTIVAVTKDPNWYKAKNKVGREGIIPANYVQKREGVKAGTKLSLMPWFHGKITREQAERLLYPPETGLFLVRESTNYPGDYTLCVSCDGKVEHYRIMYHASKLSIDEEVYFENLMQLVEHYTSDADGLCTRLIKPKVMEGTVAAQDLTLGAQIGEGEFGAVLQGEYLGQKVAVKNIKCDVTAQAFLDETAVMTKMQHENLVRLLGVILHQGLYIVMEHVSKGNLVNFLRTRGRALVNTAQLLQFSLHVAEGMEYLESKKLVHRDLAARNILVSEDLVAKVSDFGLAKAERKGLDSSRLPVKWTAPEALKHGKFTSKSDVWSFGVLLWEVFSYGRAPYPKMSLKEVSEAVEKGYRMEPPEGCPGPVHVLMSSCWEAEPARRPPFRKLAEKLAREL
35 | 0.00024 | – | Chk (R280A) (enzyme) MPTQRWAPGTQCMTKCENSRPKPGELAFRKGDMVTILEACEDKSWYRAKHHSSGQEGLLAAAALRQREALSTDPKLSLMPWFHGKISGQEAIQQLQPPEDGLFLVRESARHPGDYVLCVSFGRDVIHYRVLHRDGHLTIDEAVCFCNLMDMVEHYTRDKGAICTKLVKPKRKQGAKSAEEELAKAGWLLDLQHLTLGAQIGEGEFGAVLQGEYLGQKVAVKNIKCDVTAQAFLDETAVMTKLQHRNLVRLLGVILHHGLYIVMEHVSKGNLVNFLRTRGAALVSTSQLLQFALHVAEGMEYLESKKLVHRDLAARNILVSEDLVAKVSDFGLAKAELRKGLDSSRLPVKWTAPEALKNGRFSSKSDVWSFGVLLWEVFSYGRAPYPKMSLKEVSEAVEKGYRMEPPDSCPGPVHTLMGSCWEAEPSRRPPFRKIVEKLGRELRSVGVAAPAGGQEAEGSAPTRSQDPGSGSHHHHHH
– | 0.000322 | – | Chk (R382A) (enzyme) MPTQRWAPGTQCMTKCENSRPKPGELAFRKGDMVTILEACEDKSWYRAKHHSSGQEGLLAAAALRQREALSTDPKLSLMPWFHGKISGQEAIQQLQPPEDGLFLVRESARHPGDYVLCVSFGRDVIHYRVLHRDGHLTIDEAVCFCNLMDMVEHYTRDKGAICTKLVKPKRKQGAKSAEEELAKAGWLLDLQHLTLGAQIGEGEFGAVLQGEYLGQKVAVKNIKCDVTAQAFLDETAVMTKLQHRNLVRLLGVILHHGLYIVMEHVSKGNLVNFLRTRGRALVSTSQLLQFALHVAEGMEYLESKKLVHRDLAARNILVSEDLVAKVSDFGLAKAELRKGLDSSRLPVKWTAPEALKNGRFSSKSDVWSFGVLLWEVFSYGAAPYPKMSLKEVSEAVEKGYRMEPPDSCPGPVHTLMGSCWEAEPSRRPPFRKIVEKLGRELRSVGVAAPAGGQEAEGSAPTRSQDPGSGSHHHHHH
